# Assay results taken from patent publication US20210172946A1.
# Where “and” joins values, the source holds several entries; their conditions need not be identical. Equal values may be shown once.
# Columns and labels:
# [1] = target: biotinylated antigen (biotinylated 16-branched citrullinated peptide); test: magnetic particle chemiluminescence immunoassay; antibody at 10 RU/ml; kit stored at 37 C for 7 days
# [2] = target: biotinylated antigen (biotinylated 16-branched citrullinated peptide); test: magnetic particle chemiluminescence immunoassay; antibody at 80 RU/ml; kit stored at 37 C for 7 days
# [3] = target: biotinylated antigen (biotinylated 16-branched citrullinated peptide); test: magnetic particle chemiluminescence immunoassay, antigen on streptavidin particles, AP anti-human IgG detection; antibody at 10 RU/ml; kit stored at 4 C for 7 days
# [4] = target: biotinylated antigen (biotinylated 16-branched citrullinated peptide); test: magnetic particle chemiluminescence immunoassay; antibody at 80 RU/ml; kit stored at 37 C for 7 days; mean of two
# [5] = target: biotinylated antigen (biotinylated 16-branched citrullinated peptide); test: magnetic particle chemiluminescence immunoassay; antibody at 80 RU/ml; kit stored at 4 C for 7 days; mean of two
# [6] = target: biotinylated antigen (biotinylated 16-branched citrullinated peptide); test: magnetic particle chemiluminescence immunoassay; antibody at 10 RU/ml; kit stored at 37 C for 7 days; mean of two
# [7] = target: biotinylated antigen (biotinylated 16-branched citrullinated peptide); test: magnetic particle chemiluminescence immunoassay; antibody at 200 RU/ml; kit stored at 4 C for 7 days
# [8] = target: biotinylated antigen (biotinylated 16-branched citrullinated peptide); test: magnetic particle chemiluminescence immunoassay; antibody at 200 RU/ml; kit stored at 4 C for 7 days; mean of two
# [9] = target: biotinylated antigen (biotinylated 16-branched citrullinated peptide); test: magnetic particle chemiluminescence immunoassay; antibody at 80 RU/ml; kit stored at 4 C for 7 days
# [10] = target: biotinylated antigen (biotinylated 16-branched citrullinated peptide); test: magnetic particle chemiluminescence immunoassay; antibody at 200 RU/ml; kit stored at 37 C for 7 days
# [11] = target: biotinylated antigen (biotinylated 16-branched citrullinated peptide); test: magnetic particle chemiluminescence immunoassay; antibody at 10 RU/ml; kit stored at 4 C for 7 days; mean of two
# [12] = target: biotinylated antigen (biotinylated 16-branched citrullinated peptide); test: magnetic particle chemiluminescence immunoassay; antibody at 10 RU/ml; kit stored at 4 C for 7 days
# [13] = target: biotinylated antigen (biotinylated 16-branched citrullinated peptide); test: magnetic particle chemiluminescence immunoassay; antibody at 200 RU/ml; kit stored at 37 C for 7 days; mean of two
substance,measurement,setting,value
anti-citrullinated peptide antibody (quality control material / calibrator of the kit),RLU,[1],124000 RLU
same,RLU,[2],886000 RLU and 917000 RLU
same,RLU,[3],125000 RLU
same,RLU (AVER),[4],902000 RLU
same,RLU (AVER),[5],889000 RLU
same,RLU (AVER),[6],124000 RLU
same,RLU,[7],2.38e+06 RLU and 2.42e+06 RLU
same,RLU (AVER),[8],2.4e+06 RLU
same,RLU,[9],846000 RLU and 932000 RLU
same,RLU,[10],2.32e+06 RLU and 2.44e+06 RLU
same,RLU (AVER),[11],129000 RLU
same,RLU,[12],132000 RLU
same,RLU (AVER),[13],2.38e+06 RLU
